Data as given in the DeepSol protein solubility set.

Experiment: soluble on expression in E. coli; label from the status in PepcDB or PDB records

| Sequence | soluble on expression in E. coli |
| --- | --- |
| MGSDKIHHHHHHMRTPTCDITTHERWFGAFTAPYLEEGPEHVGPVRLKIEHTHHVLSNARSIVDSEDFSPLVQRAALLAALYHDTGRFPQYRRWRTFSDPRSVNHALLGGRTLREAGALDDEPVEVRRLVLGAVVMHNRFRVPSGIPDDARTVTDVVRDADKLDIFRVMAPHLAPGAERDKVVVLHVEDAPGKWSPVIVADVLAGRVASYADLRYVNDFRLLLGTWVRDLRFPASRRMLAASGLVENILSALPASDDIARARTRILSDLADAARGRGGA | not soluble |
| MGSDKIHHHHHHMPKQTFFNLKDEKRQRIIDAAEREFSQCPLYESSINNIIKDAKIPRGSFYQYFDDLSDLYGYYFSLILEDIQENLIDSVQEADGDIFSAVKKYAGEYMKEIISGNHRDFYRNFFLGANISKRSKDGKHPGFDVYHSDRMKELRVNLKKEVNWKLLKVTNEKDQNMIQQLIMMIFFHSFANYFVHSNNTDSDPAEVQKEIERNLNWLEFGARRTEDK | not soluble |
| MASNFKKANMASSSQRKRMSPKPELTEEQKQEIREAFDLFDADGTGTIDVKELKVAMRALGFEPKKEEIKKMISEIDKEGTGKMNFGDFLTVMTQKMSEKDTKEEILKAFKLFDDDETGKISFKNLKRVAKELGENLTDEELQEMIDEADRDGDGEVSEQEFLRIMKKTSLY | soluble |
| MSLNVTVHGVPVGSLTREEARAKIESHFAPFLAQPVMLTYSGRTWTPTLAELGAELAIDEAVDKAVAVGRGHDLFTNLQQIGAVWQRGLELPLHLSIDQDALQRYLLDRVAEVERPAVDARLVLHGTTVRVEPSAFGRQVLVNDTLHEIVAALQDLNPDTIALRTRTLEPALRDDAAIVAQDQIAALLAGPITLLIDDRPFVWSLDELARMVRVERIPDPAGDRLVVSIDHELVRARIREIGDATEVKGTYPRLNWNDGRLEIFQEGKPGRRIDEDQVFAAVLDALTKPAEQRTVTVAFREIPPPITAANLDQLGITTLIGVGRSDFTGSAAYRVTNIQAGMRLLHGVLIAPGEEFSFNQTIGRIDRSNGFVEGYAIIQNRTQLEWGGGICQDSTTMFRAAFWAGLPITERWGHSFYISWYDRYAFGPYGDGPGMDATIFTGGPDLKFLNDTGGWLLIQTLVDTHRHLAEVRLYGPDTGRKVLLEGPIITNRTEGHHHHHH | soluble |
| MGSDKIHHHHHHMNVRQLEAFQAVMSAGSLTAAAGLLSVSQPAVSQLIAQLEGNCGFSLFDRAGTKMRPTREAEVLHAEVQRMFIGVGRVANVAKALRDQTWGALSIASFPVLTRRMLPNIVTSFCKTRPDVKFSVESMRSRSLVDAVATQQVDLGFSILPGDRPEVDSTHVCTLRGLCILPKGHRLSKRRLIRAKDLDGEAFVALGPQDHSRFQIDKIFEEADVQRRIQVEVGQSETACSFVANGVGVAVVDPISVWNNAGADFVVCAFEPKMEFEIWLIRPKTARPFALIDTFSDYACAELMRLKEEEIDIRQPRG | not soluble |
| MKSSTMTSDYYKQTQIDQTLRLREVLKTLPPFAKDYFRAMEPKSSAKTRINYAYDIRVFFHFLLENNPIYKNYTMDQFRVQDLERIEPVDIEEYMEYLKVYKREDNEMITNGERGLKRKMSALRSFYSYYFKHQYIATNPTLLEHHHHHH | not soluble |
| MLAILYDRIRPDERMLFERAEALGLPYKKVYVPALPMVLGERPKELEGVTVALERCVSQSRGLAAARYLTALGIPVVNRPEVIEACGDKWATSVALAKAGLPQPKTALATDREEALRLMEAFGYPVVLKPVIGSWGRLLAKVTDRAAAEALLEHKEVLGGFQHQLFYIQEYVEKPGRDIRVFVVGERAIAAIYRRSAHWITNTARGGQAENCPLTEEVARLSVKAAEAVGGGVVAVDLFESERGLLVNEVNHTMEFKNSVHTTGVDIPGEILKYAWSLAS | soluble |
| MPNTIRLHRVLSAPPERVYRAFLDPLALAKWLPPEGFVCKVLEHDARVGGAYKMEFLAFASGQKHAFGGRYLELVPGERIRYTDRFDDAGLPGDMITTITLAPLSCGADLSIVQEGIPDAIPPENCYLGWQQSLKQLAALVEPDMPGLEHHHHHH | soluble |
| MNGASPAHSLVSTTAVAGGGGSSGAAAGLDDFHFPPDIPSMQERKDEAMRVLKADLMTELDKEVKSLEEDSWMFEGPRSRIHLISRRGNFLKKGGEVKLW | not soluble |
| MGHHHHHHSHMKYGNPNYGGMKGILSNSWKRRYHSRRIQRDVIKKRALIGDDVGLTSYKHRHSGLVNVPEEPIEEEEEEEEEEEEEEEEDQDMDADDRVVVEYHEELPALKQPRERSASRRSSASSSDSDEMDYDLELKMISTPSPKKSMKMTMYADEVESQLKNIRNSMRADSVSSSNIKNRIGNKLPPEKFADVRHLLDEKRQHSRPRPPVSSTKSDIRQRLGKRPHSPEKAFSSNPVVRREPSSDVHSRLGVPRQDSKGLYADTREKKSGNLWTRLGSAPKTKEKNTKKVDHRAPGAEEDDSELQRAWGALIKEKEQSRQKKSRLDNLPSLQIEVSRESSSGSEAES | not soluble |
| MGSDKIHHHHHHMARTVVVGLGRSGIGAARLLQAEGHQVTVLERSIEPHLQSLAADLRLQGIAVELGKPLELNSFIPLLDQLDAVVISPGIAWDHPTLTALRQRGIDIDGEMAVAWRSLSHLPWIAITGTNGKTTVTHLLNHVLESNGLRAPMGGNVGHAAAEVALKWRQPNAQRPDWLVMELSSYQIEAAPEIAPRMGIWTNLTPDHLERHGTLDAYRTIKRGLLERSEIRIFNGDDPDLRSQRSSWDKGLWVSSEGPGTANHRADFWIDAEGLVREPQGALFAASALAMPGQHNLQNLLLVTAAARQTGLPAKAIEASLRSFPGVPHRLEQLGHIQQMSVYNDSKATNYDAACVGLKAVPPPAVVLAGGQTKQGDASGWLKQLDQNACAVILFGAGASELQELIKTSGFSGELHCCSNLNAAVTLAIPLGVERQAACLLLSPACASFDQYQDFEARGEHFRSLISSHLTA | not soluble |
| LRLHQWLRNHQPDEPPPDSYGLWGEVFDNIYHLQRRNQRARGRLQAVIDRIQESTAALRDAVIMLDSDGNLEWWNLAAENLLGLKTPQDGGQPVSNLIRHPRFKEYFDQEDYREPLEIPSPINERLRLQFHITLYGNREHLMLVRDVTRVHQLEQMRKDFVANVSHELRTPLTVIAGYLETLLDNVEDVNPRWLRALQQMQQQAGRMQNLLNDLLLLAKLEATDYPGDNKPVAVDALLASIRNDAQALSAGRNHRISLDAAPAVQLKGSEAELRSAFSNLVFNAVKYTPDEGEIRIRWWADEQGAHLSVQDTGIGVDPKHLPRLTERFYRVDSSRASNTGGTGLGLAIVKHVLIRHRARLEISSVPGKGSTFTCHFAPAQVAEAERKAPK | not soluble |
| MSLTIFTKERKLLLAVESSCDETSVAVIEDGDKILSNIVASQIKSHQRFGGVVPEVASRHHVEQVTICIEEALTEAKVTPEELSGVAVTYGPGLVGALLIGLSAAKAFAWAHQLPLIPVNHMAGHIYAARFVAPLEFPLMALLVSGGHTELVYMKEDGSFEIVGETRDDAAGEAYDKVGRVLGLPYPSGKEIDALAHEGTDTYQFPRAMLKEDNYDFSFSGLKSAFINTVHNAEQRGEALSTKDLAASFQASVVEVLVTKTIRACQEYPVKQLLIAGGVAANQGLREAMRHAISEQLPAVTLLIPPLKLCGDNAAMIGAAAFIEAEKNHFASYNLNAEPGVSFMTISEEGEGHHHHHH | soluble |
| MGSDKIHHHHHHMANGLQRLIRSLKLVARYGLIVMNDGLICLPIKQRQVVFESFNGKDVNDNPAAIYRELVATAPEYRTTAYFSVKPREFAALHKKYPQIQLVKRFTPRWVWLMARAEFWVLNSRLPNWWHQNRRTTVIQTWHGTPLKKLGADIEHVAIPGTTTAAYHQEFKTAASRWQYLIAPNQYSQTIFKSAFGFHHQFLSVGYPRNDRLYTTLPAEITDLKQQLLGSTKGPVVTYAPTWRDDMAVRPGVYQFDLPFDLAEFFQHVPANTQLIIRPHYLVKDAIDIHGFEERVHVLAETDITDLYLISDLLITDYSSVMFDFANLQRPQLFFAYDLAHYRDQLRGFYFDYEQEIPGPLVTTASAFYAQLDRWRQDGAFHDYQARQAAFYEKFCSWENGTASRQVVQVMLHGKDEIK | not soluble |
